PMC8892158

Molecular target: Staphylococcus aureus FakA (S. aureus)

Substance: Staphylococcus aureus FakB1 (wild type), palmitate-loaded (from UniProt X5EH37 1-288) (natural protein)
- apparent KM of FakB1 in the FA kinase assay with 0.2 μM FakA: 0.13 µM

Substance: Staphylococcus aureus FakB1(A158L), myristate-loaded (from UniProt X5EH37 1-288) (natural protein)
- apparent KM of FakB1(A158L) in the FA kinase assay with 0.2 μM FakA: 0.13 µM

Substance: Staphylococcus aureus FakB1(A121I), palmitate-loaded (from UniProt X5EH37 1-288) (natural protein)
- apparent KM of FakB1(A121I) in the FA kinase assay with 0.2 μM FakA: 0.1 µM
